Measured values reported in patent US20200155643.

Molecular target: Recombinant human protein C inhibitor (PCI, SERPINA5) (UniProt P05154)
Sequence (P05154 20-406): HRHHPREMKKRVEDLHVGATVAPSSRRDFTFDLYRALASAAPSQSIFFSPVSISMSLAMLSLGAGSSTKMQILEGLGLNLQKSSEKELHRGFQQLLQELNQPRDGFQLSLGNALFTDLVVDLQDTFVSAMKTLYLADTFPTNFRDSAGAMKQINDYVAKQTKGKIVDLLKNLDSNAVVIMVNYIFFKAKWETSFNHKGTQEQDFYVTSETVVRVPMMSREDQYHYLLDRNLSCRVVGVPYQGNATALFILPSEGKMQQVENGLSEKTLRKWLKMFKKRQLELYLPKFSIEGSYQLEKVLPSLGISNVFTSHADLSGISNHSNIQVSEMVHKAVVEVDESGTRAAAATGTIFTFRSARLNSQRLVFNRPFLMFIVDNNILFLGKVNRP

| Substance | cleavage of PCI (anti-PCI immunoblot) |
| --- | --- |
| Recombinant mouse testisin (R&D Systems 6820-SE-10) | PCI is a substrate for testisin ... testisin cleaves PCI at a second site |
| Recombinant human hepsin (R&D Systems 4776-SE-10) | resulted in the appearance of cleaved forms of PCI |
